Source: patent publication US20190276796A1 (Seagen, published 2019)

How the values were obtained:
murine FcγRIV = target: T1, murine FcγRIV (murine, UniProt A0A0B4J1G0 21-249); test: competition flow cytometry on CHO DG-44 cells expressing murine FcγRIV; competitor 200 nmol/L Alexa Fluor 488 labeled anti-CD70 IgG1
T1 construct: also called muFcγRIV; murine Fcγ receptor (CD16)
T1 sequence: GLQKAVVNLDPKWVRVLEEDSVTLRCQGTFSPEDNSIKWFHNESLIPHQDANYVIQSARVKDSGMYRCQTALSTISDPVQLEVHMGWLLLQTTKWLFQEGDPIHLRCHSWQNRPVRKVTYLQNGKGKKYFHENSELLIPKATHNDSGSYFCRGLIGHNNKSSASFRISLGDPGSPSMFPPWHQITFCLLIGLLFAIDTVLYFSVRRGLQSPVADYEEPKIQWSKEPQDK

human FcγRIIIA V158 = target: T2, human FcγRIIIA V158 (human, UniProt P08637 17-254); test: competition flow cytometry on CHO DG-44 cells expressing human FcγRIIIA V158; competitor 50 nmol/L Alexa Fluor 488 labeled anti-CD70 IgG1
T2 construct: whole, on cells; also called huFcγRIIIA V158; human Fcγ receptor (CD16)
T2 sequence (P08637 17-254 F176V): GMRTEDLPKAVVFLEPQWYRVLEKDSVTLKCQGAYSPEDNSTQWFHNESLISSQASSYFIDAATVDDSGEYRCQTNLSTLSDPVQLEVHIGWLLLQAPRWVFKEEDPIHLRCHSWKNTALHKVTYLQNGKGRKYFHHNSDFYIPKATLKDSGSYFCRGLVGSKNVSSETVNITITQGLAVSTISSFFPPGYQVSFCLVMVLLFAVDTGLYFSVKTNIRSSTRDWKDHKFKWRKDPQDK

B1: control h1F6 antibody (humanized IgG1 anti-CD70 monoclonal antibody, from CHO DG44 cells cultured without fucose analog; core fucosylated) (antibody)
chain 1: QVQLVQSGAEVKKPGASVKVSCKASGYTFTNYGMNWVRQAPGQGLKWMGWINTYTGEPTYADAFKGRVTMTRDTSISTAYMELSRLRSDDTAVYYCARDYGDYGMDYWGQGTTVTVSSASTKGPSVFPLAPCSRSTSESTAALGCLVKDYFPEPVTVSWNSGALTSGVHTFPAVLQSSGLYSLSSVVTVPSSNFGTQTYTCNVDHKPSNTKVDKTVERKCCVECPPCPAPPVAGPSVFLFPPKPKDTLMISRTPEVTCVVVDVSHEDPEVQFNWYVDGVEVHNAKTKPREEQFNSTFRVVSVLTVVHQDWLNGKEYKCKVSNKGLPAPIEKTISKTKGQPREPQVYTLPPSREEMTKNQVSLTCLVKGFYPSDIAVEWESNGQPENNYKTTPPMLDSDGSFFLYSKLTVDKSRWQQGNVFSCSVMHEALHNHYTQKSLSLSPGK
chain 2: DIVMTQSPDSLAVSLGERATINCRASKSVSTSGYSFMHWYQQKPGQPPKLLIYLASNLESGVPDRFSGSGSGTDFTLTISSLQAEDVAVYYCQHSREVPWTFGQGTKVEIKRTVAAPSVFIFPPSDEQLKSGTASVVCLLNNFYPREAKVQWKVDNALQSGNSQESVTEQDSKDSTYSLSSTLTLSKADYEKHKVYACEVTHQGLSSPVTKSFNRGEC
EC50 (murine FcγRIV): 369 nM
EC50 (human FcγRIIIA V158): 113 nM
